The text below walks through data of publication PMC4045772 (PLoS ONE, 2014).

For the experiment, the target named is biotinylated Cul3/Rbx1 (UniProt Q13618 1-768; P62877 1-108, biotin (BirA biotinylation of the Avi tag)). Nature of the experiment: AlphaScreen or HTRF; 30 nM His-tagged Keap1 (35-235) incubated with CDDO or DMSO 2.5 h at 37°C, then 30 nM biotinylated Cul3/Rbx1 1.5 h at room temperature; nickel chelate donor beads and streptavidin acceptor beads. To be noted: both partners purified.
biotinylated Cul3/Rbx1, sequence (Q13618 whole entry, chain 1 of 2): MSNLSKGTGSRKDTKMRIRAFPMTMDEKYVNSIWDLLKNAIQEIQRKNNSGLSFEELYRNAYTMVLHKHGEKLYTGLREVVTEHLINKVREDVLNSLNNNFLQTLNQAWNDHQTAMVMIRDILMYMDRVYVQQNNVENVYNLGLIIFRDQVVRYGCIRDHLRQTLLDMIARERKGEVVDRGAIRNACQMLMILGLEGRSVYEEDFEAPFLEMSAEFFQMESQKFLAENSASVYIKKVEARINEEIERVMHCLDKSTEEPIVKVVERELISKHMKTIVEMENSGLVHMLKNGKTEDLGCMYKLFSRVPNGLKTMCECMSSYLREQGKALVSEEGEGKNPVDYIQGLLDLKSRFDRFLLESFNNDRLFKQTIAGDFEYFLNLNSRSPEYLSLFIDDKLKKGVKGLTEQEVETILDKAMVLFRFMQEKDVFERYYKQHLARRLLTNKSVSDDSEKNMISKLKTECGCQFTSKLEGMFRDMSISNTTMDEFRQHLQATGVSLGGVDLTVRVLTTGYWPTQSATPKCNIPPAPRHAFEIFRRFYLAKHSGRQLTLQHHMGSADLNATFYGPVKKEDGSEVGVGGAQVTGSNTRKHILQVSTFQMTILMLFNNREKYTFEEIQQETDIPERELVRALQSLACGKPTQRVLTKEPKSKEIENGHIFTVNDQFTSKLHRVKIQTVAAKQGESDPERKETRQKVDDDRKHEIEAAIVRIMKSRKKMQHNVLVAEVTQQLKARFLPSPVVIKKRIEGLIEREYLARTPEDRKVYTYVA
biotinylated Cul3/Rbx1, sequence (P62877 whole entry, chain 2 of 2): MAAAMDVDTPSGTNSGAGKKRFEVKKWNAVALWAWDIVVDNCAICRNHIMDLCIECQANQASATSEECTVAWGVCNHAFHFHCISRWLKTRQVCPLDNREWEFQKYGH

B1: Keap1 BTB with the first ~50 residues of the BACK domain (residues 35-235), C151S (domain or fragment, human, UniProt Q14145 35-235, looked up)
chain: STECKAEVTPSQHGNRTFSYTLEDHTKQAFGIMNELRLSQQLCDVTLQVKYQDAPAAQFMAHKVVLASSSPVFKAMFTNGLREQGMEVVSIEGIHPKVMERLIEFAYTASISMGEKSVLHVMNGAVMYQIDSVVRACSDFLVQQLDPSNAIGIANFAEQIGCVELHQRAREYIYMHFGEVAKQEEFFNLSHCQLVTLISRD
On to B1, for which the binding result is reported as “binds”.
